According to FireProtDB:

B1: Ribonuclease HI, P0A7Y4 (parent)
chain: MLKQVEIFTDGSCLGNPGPGGYGAILRYRGREKTFSAGYTRTTNNRMELMAAIVALEALKEHCEVILSTDSQYVRQGITQWIHNWKKRGWKTADKKPVKNVDLWQRLDAALGQHQIKWEWVKGHAGHPENERCDELARAAAMNPTLEDTGYQVEV

Variants of: B1
Settings: Escherichia coli (strain K12); pH 3; 49.8 °C; Thermal; CD; glycine-HCl 10 mM; reversible: yes; structure 2RN2; whole UniProt chain shown

Variant | ddG of mutation (higher = less stable) [kcal/mol]
K95N | -0.9
K95A | -0.1
K91R D94E K95G | -1.2
D94R K95G | -1.1

Same assay, conditions: Escherichia coli (strain K12); pH 3; 50.1 °C; Thermal; CD; glycine-HCl 10 mM; NaCl 0.1 M; reversible: yes; structure 2RN2; whole UniProt chain shown

Variant | ddG of mutation (higher = less stable) [kcal/mol]
K95N | -0.88
E119V | -0.09

Same assay, conditions: Escherichia coli (strain K12); pH 3; Thermal; CD; glycine-HCl 10 mM; NaCl 0.1 M; reversible: yes; structure 2RN2; whole UniProt chain shown

Variant | Tm [°C] | change of melting temperature, mutant - wild type (higher = more stable) [°C] | unfolding enthalpy (van 't Hoff) [kcal/mol]
K95N | 53 | 2.9 | 109
Q80L | 51.1 | 1 | 114

Same assay, conditions: Escherichia coli (strain K12); pH 3; Thermal; CD; glycine-HCl 10 mM; reversible: yes; structure 2RN2; whole UniProt chain shown

Variant | Tm [°C] | change of melting temperature, mutant - wild type (higher = more stable) [°C] | unfolding enthalpy (van 't Hoff) [kcal/mol]
K95N | 49.8 | 2.9 | 109
K95G | 49.8 | 5.7 | 102
K91R D94E K95G | 53.8 | 4 | 105
D94R K95G | 53.4 | 3.6 | 127

Same assay, conditions: Escherichia coli (strain K12); pH 5.5; 49.8 °C; Thermal; CD; Sodium acetate 20 mM; reversible: yes; structure 2RN2; whole UniProt chain shown

Variant | ddG of mutation (higher = less stable) [kcal/mol]
K95N | -0.9
K95G | -1.9
K95A | -0.1

Same assay, conditions: Escherichia coli (strain K12); pH 5.5; 52.7 °C; Thermal; CD; Sodium acetate 20 mM; NaCl 0.1 M; reversible: yes; structure 2RN2; whole UniProt chain shown

Variant | ddG of mutation (higher = less stable) [kcal/mol]
K95N | -0.88
E119V | -0.74

Same assay, conditions: Escherichia coli (strain K12); pH 5.5; Thermal; CD; Sodium acetate 20 mM; reversible: yes; structure 2RN2; whole UniProt chain shown

Variant | Tm [°C] | change of melting temperature, mutant - wild type (higher = more stable) [°C] | unfolding enthalpy (van 't Hoff) [kcal/mol]
K95N | 52 | 3.2 | 90
K95G | 52 | 6.8 | 90.4
K95A | 52 | 0.4 | 96.4

Same assay, conditions: Escherichia coli (strain K12); pH 5.5; 25 °C; GdnHCl; CD; glycine-HCl 10 mM; reversible: yes; structure 2RN2; whole UniProt chain shown

Variant | ddG of mutation (higher = less stable) [kcal/mol] | denaturant m value [kcal/mol/M] | denaturant midpoint (higher = more stable) [M] | unfolding free energy [kcal/mol]
K91R D94E K95G | 0.01 | 4.36 | 2.1 | 9.14

Same assay, conditions: Escherichia coli (strain K12); pH 5.5; 52 °C; Thermal; CD; glycine-HCl 10 mM; reversible: yes; structure 2RN2; whole UniProt chain shown

Variant | ddG of mutation (higher = less stable) [kcal/mol]
K91R D94E K95G | -1.5

Same assay, conditions: Escherichia coli (strain K12); pH 5.5; Thermal; CD; glycine-HCl 10 mM; reversible: yes; structure 2RN2; whole UniProt chain shown

Variant | Tm [°C] | change of melting temperature, mutant - wild type (higher = more stable) [°C] | unfolding enthalpy (van 't Hoff) [kcal/mol]
K91R D94E K95G | 57.6 | 5.6 | 86.8
D94R K95G | 57.5 | 5.5 | 102

Same assay, conditions: Escherichia coli (strain K12); pH 5.5; Thermal; CD; Sodium acetate 20 mM; NaCl 0.1 M; reversible: yes; structure 2RN2; whole UniProt chain shown

Variant | Tm [°C] | change of melting temperature, mutant - wild type (higher = more stable) [°C] | unfolding enthalpy (van 't Hoff) [kcal/mol]
Q80L | 53.5 | 0.8 | 94.6
E119V | 55.4 | 2.7 | 94.3

Same assay, conditions: Escherichia coli (strain K12); pH 5.5; 49.8 °C; Thermal; CD; glycine-HCl 10 mM; reversible: yes; structure 2RN2; whole UniProt chain shown

Variant | ddG of mutation (higher = less stable) [kcal/mol]
D94R K95G | -1.5
